Results published in PMC12145851.

Assays:
[1] = molecular target: phospholamban (PLN) (mouse (endogenous in mouse heart)) (UniProt P61014); test: co-IP; PLN antibody immunoprecipitation from unfixed mouse cardiac tissue lysate (IP group), immunoblot of co-precipitated proteins
[2] = molecular target: phospholamban (PLN) (mouse (endogenous in mouse heart)) (UniProt P61014); test: co-IP; PLN antibody immunoprecipitation from 3 % glyoxal-fixed (cross-linked) mouse cardiac tissue lysate (xIP group), immunoblot of co-precipitated proteins

UniProt P61014, sequence (P61014 whole entry): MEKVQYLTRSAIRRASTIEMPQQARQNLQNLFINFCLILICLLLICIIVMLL

Substance: integrin beta-1 (ITGB1) (from UniProt P09055 21-798) (natural protein)
- signal of co-precipitated protein (relative, %) [1]: 100%
- signal of co-precipitated protein (relative, %) [2]: 282%
